We go through 167 variants from the RNAGym collection of RNA variant scans (doi:10.7554/elife.80360).

B1: HDV Ribozyme (parent)
chain: GGCCGGCAUGGUCCCAGCCUCCUCGCUGGCGCCGGCUGGGCAACAUUCCGAGGGGACCGUCCCCUCGGUAAUGGCGAAUGGGACCCA

This series covers variants of B1. The series can be described thus: self-cleavage, relative activity (ratio to wild type); higher = more cleavage; co-transcriptional.
With A8U G25C, the self-cleavage was determined as 0.277.

In the case of U9A G80U, the self-cleavage came out at 0.213. Turning to A8U G59U, the self-cleavage was determined as 1.04. Under C7U G11A stands 0.423; under C7U G11U, 0.16; under A8C U60G, 0.554. As to A8G C62G, the self-cleavage was 0.489. As to A8G C62U, the self-cleavage was 0.95. As to C7U U69A, the self-cleavage stood at 0.718. Consider C7U G40U, for which the self-cleavage came to 0.821. Then A8G A83U, with 0.246; and C7G G80A, with 0.145. Then U9A C41A, with 0.831; and A8C C26U, with 1.01. Then C7G G39C, with 0; and C7G G39A, with 0.147; and U9A A77G, with 0.751. On to C7G U69A, for which the self-cleavage was found to be 0.237.

Regarding A8G G67U, the self-cleavage came to 0.978.

Regarding U9A C66U, the self-cleavage came out at 1.01. Turning to A8C U72A, the self-cleavage turned out to be 0.375. As to A8C U72G, the self-cleavage stood at 0.332.

For A8G C33U, the self-cleavage was found to be 0.751.

Regarding A8G C33A, the self-cleavage stood at 0.101. A8G G35U: the self-cleavage was 0.306. Turning to A8G A16C, the self-cleavage is 0.639. Under A8G A16U stands 0.895; under C7U U60C, 1.26; under C7U U60G, 0.831. Under A8U C84G stands 0.462. Under A8G C61A stands 0.886; under A8C A56U, 1. C7U C36A: the self-cleavage was found to be 0.0405. Under C7U C36G stands 0.104; under U9A C21U, 0.155; under C7U U12G, 1.02. On to A8G C41U, for which the self-cleavage is 0.917. As to A8U G11U, the self-cleavage came to 0.201. Then U9C A87G, with 1.12; and U9A C49A, with 0.554. With U9A C49G, the self-cleavage was determined as 0.88. Then A8U A71G, with 0.917; and A8U A71C, with 0.703.

For A8U A71U, the self-cleavage is 0.917. Then C7G G38A, with 0.101. Under C7G G38U stands 0.0692; under C7U C30U, 0.483. Then C7G G11A, with 0.0346; and A8G U12G, with 0.712. As to A8C G17U, the self-cleavage was 0.287.

Regarding A8G C84A, the self-cleavage was 0.598.

On to C7G C48G, for which the self-cleavage is 0. Take C7G U37C: the self-cleavage came out at 0.399. Under C7G U37G stands 0. Under A8C U69C stands 0.831. For the variant C7G U79A, the self-cleavage stood at 0.123.

As for U9A U47G, the self-cleavage is 0.772.

In the case of A8G U60G, the self-cleavage was 1.11.

With A8U C61A, the self-cleavage amounted to 0.831.

Regarding A8U C61U, the self-cleavage came to 0.739. Then A8U G29C, with 0.0554; and A8C C13G, with 0.0692; and A8G G39C, with 0.142. For A8C G68C, the self-cleavage was 0.604. Then A8U G39C, with 0.166; and A8C C57G, with 0.87; and C7G G34C, with 0.213. Under U9A G10A stands 1.03; under C7U U23G, 0.332. C7U U65C: the self-cleavage is 0.914.

For the variant A8G C63U, the self-cleavage came out at 1.26. For the variant A8G G38A, the self-cleavage amounted to 0.0959. Consider A8G G38U, for which the self-cleavage turned out to be 0.0405. Then A8G G82U, with 0.369. Then A8G G28A, with 0.166; and A8G G28C, with 0; and C7G G31A, with 0.441.

For the variant C7G G31C, the self-cleavage stood at 0.95. Then C7G C61A, with 0.486; and C7G C61G, with 0.287; and C7G C86U, with 0.383. Under A8U G10C stands 0.639.

Regarding C7G U65G, the self-cleavage came to 0.199. Then C7G U65C, with 0.0831; and A8C G54U, with 0.618; and A8C G54A, with 0.759. As for A8G C66U, the self-cleavage worked out at 1.14. In the case of A8U U23C, the self-cleavage came to 0.532. Take C7U G55A: the self-cleavage stood at 0.724. Take C7U G55C: the self-cleavage is 0.736. Under C7G U12A stands 0; under U9A G55U, 0.895.

With A8U C14G, the self-cleavage came out at 0.237. Then C7U G39C, with 0.0923. As to A8U C86G, the self-cleavage is 0.554. Then A8U C86U, with 0.997. Then U9A U23C, with 1.08; and C7G G81U, with 0.0594.

For the variant A8U A70U, the self-cleavage was 0.772.

Turning to A8U G74U, the self-cleavage stood at 0.173. Under U9A C86G stands 1.04; under U9A C86A, 0.554. As for U9A G29C, the self-cleavage turned out to be 0. Under A8C C61A stands 0.931; under A8C U47C, 0.665. Under A8C U12A stands 0. Then A8C G55A, with 0.636; and C7G C85A, with 0.302; and U9A G31C, with 0.287.

In the case of U9C A42U, the self-cleavage amounted to 0.767. Then C7U G35C, with 0; and U9C A56C, with 1.06. Then A8C U37A, with 0.128; and A8C U37C, with 0.997; and A8G C19G, with 0.0594. A8U U69A: the self-cleavage amounted to 0.962. Then A8U U69C, with 0.646; and A8U A43G, with 0.578. Then U9C A16G, with 1.51; and C7U G74U, with 0.202. Under U9A G40C stands 0.325; under C7U C58U, 1.19. On to U9A A71C, for which the self-cleavage came out at 1.05.

On to A8U C21A, for which the self-cleavage came to 0. Turning to A8U G34C, the self-cleavage amounted to 0.

Regarding A8G A45G, the self-cleavage was found to be 0.9. A8U A83C: the self-cleavage was 0. Under A8U A83G stands 0.746; under C7U U47C, 0.482. Under A8C G81A stands 0.151; under A8G U69A, 0.942; under A8G G52C, 1.26. Then A8G G52A, with 0.719. A8C G80C: the self-cleavage came out at 0.133. C7U U79A: the self-cleavage was determined as 0.675. Under A8U U60A stands 0.939; under C7G U60A, 0.317; under U9A U37A, 0.

In the case of U9A U37G, the self-cleavage stood at 0.208. Then A8U C57G, with 1.07; and A8U C57A, with 1.05; and C7U C49U, with 0.727. Then A8G G40A, with 1.08; and A8G C13U, with 0. Turning to A8G C13G, the self-cleavage is 0.0923.

Turning to C7U G53A, the self-cleavage was determined as 0.964. As to C7U G53U, the self-cleavage was 1.09. Under C7U G76A stands 1.09; under C7U G76U, 0.755; under U9C A51C, 1.49.

For the variant A8G G68A, the self-cleavage was 1.03.

For the variant A8U C64U, the self-cleavage was determined as 1.11.

Regarding C7U C14U, the self-cleavage came to 0.785. Under C7G G82C stands 0. Regarding A8G U65A, the self-cleavage came out at 0.89. Under A8U U47C stands 0.68; under A8G C64G, 0.7.

For the variant A8G C64U, the self-cleavage stood at 1.07. Then A8C G50A, with 0.96; and U9A G34A, with 0.232; and A8U A42G, with 0.111. Under C7U G81C stands 0.383; under A8U C19A, 0; under A8C G28C, 0.

Regarding C7U A51U, the self-cleavage was determined as 1.13.

With A8C U20G, the self-cleavage amounted to 0.175. Under A8C C48U stands 0.776.
